pKd: −log10 of the molar value.
Legend:
[1] = target: GST-DENV1 NS5 residues 865-899 (Dengue virus serotype 1); test: ELISA; solid-phase microtitre plate assay: GST-NLS from cell lysate captured on a glutathione coated plate and washed (PBS, 0.05% Tween-20); Impα in 2-fold serial dilutions in PBS from 12.5 μM, 1 h at RT; bound Impα detected with anti-6x His tag HRP antibody and TMB at 450 nm; one-site specific binding …
[2] = target: GST-DENV3 NS5 residues 865-900 (Dengue virus serotype 3); test: as above
[3] = target: GST-DENV4 NS5 residues 865-901 (Dengue virus serotype 4); test: as above
[4] = target: GST-DENV2 NS5 residues 865-900 (Dengue virus serotype 2); test: as above
[5] = target: GST-DENV3 NS5 residues 865-900 (Dengue virus serotype 3); test: pull-down
[6] = target: GST-DENV2 NS5 residues 865-900 (Dengue virus serotype 2); test: pull-down

Substance: mouse importin-α lacking the auto-inhibitory importin-β binding domain (Impα) (domain or fragment)
- pKd [1]: 4.27
- pKd [2]: 6.18
- pKd [3]: 4.73
- pKd [4]: 5.34
- pKd [5]: 6.43
- pKd [6]: 6.57
